Experimental findings from the supplement of paper PMC5998384 are described below.

Data set [1] deals with HeLa Kyoto. The data set can be described thus: solubility in G1/S (NP-40 vs SDS abundance) (log2 ratio); higher = more soluble. Conditions: cell cycle stage: G1/S.
Data set [2] deals with HeLa Kyoto. As to the kind of experiment: melting temperature (median over replicates), in situ; higher = more thermally stable.
The test system of data set [3] is HeLa Kyoto. The data set can be described thus: solubility change mitosis vs G1/S (difference of NP-40 vs SDS log2 ratios) (log2 ratio difference); higher = more soluble in mitosis.
Data set [4] relates to HeLa Kyoto. The data set can be described thus: thermal stability score vs G1/S (z-score of summed log2 fold changes over temperatures); higher = more thermally stable than in G1/S.
The mark [5] stands for this setting: cell cycle stage: early G1 (4.5 h after nocodazole release).
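Wherever melting temperature (median over replicates), in situ is given: HeLa Kyoto cells synchronized by double thymidine or nocodazole block, proteins quantified by TMT10plex mass spectrometry, three independent biological replicates.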
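Wherever solubility change mitosis vs G1/S (difference of NP-40 vs SDS log2 ratios) is given: synchronized HeLa Kyoto cells (double thymidine block for G1/S, nocodazole release for mitosis), protein amounts in NP-40 versus SDS lysates quantified by mass spectrometry, three biological replicates.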
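Wherever solubility in G1/S (NP-40 vs SDS abundance) is given: HeLa Kyoto cells arrested at G1/S by double thymidine block, proteins quantified by TMT10plex mass spectrometry in mild NP-40 versus SDS extracts, three biological replicates.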
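Wherever thermal stability score vs G1/S (z-score of summed log2 fold changes over temperatures) is given: synchronized HeLa Kyoto cells, proteins quantified by TMT10plex mass spectrometry, three biological replicates, mitosis taken 0.5 h after nocodazole release, G1/S directly after double thymidine block.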

HSPA2, sequence (chain, as listed by the source): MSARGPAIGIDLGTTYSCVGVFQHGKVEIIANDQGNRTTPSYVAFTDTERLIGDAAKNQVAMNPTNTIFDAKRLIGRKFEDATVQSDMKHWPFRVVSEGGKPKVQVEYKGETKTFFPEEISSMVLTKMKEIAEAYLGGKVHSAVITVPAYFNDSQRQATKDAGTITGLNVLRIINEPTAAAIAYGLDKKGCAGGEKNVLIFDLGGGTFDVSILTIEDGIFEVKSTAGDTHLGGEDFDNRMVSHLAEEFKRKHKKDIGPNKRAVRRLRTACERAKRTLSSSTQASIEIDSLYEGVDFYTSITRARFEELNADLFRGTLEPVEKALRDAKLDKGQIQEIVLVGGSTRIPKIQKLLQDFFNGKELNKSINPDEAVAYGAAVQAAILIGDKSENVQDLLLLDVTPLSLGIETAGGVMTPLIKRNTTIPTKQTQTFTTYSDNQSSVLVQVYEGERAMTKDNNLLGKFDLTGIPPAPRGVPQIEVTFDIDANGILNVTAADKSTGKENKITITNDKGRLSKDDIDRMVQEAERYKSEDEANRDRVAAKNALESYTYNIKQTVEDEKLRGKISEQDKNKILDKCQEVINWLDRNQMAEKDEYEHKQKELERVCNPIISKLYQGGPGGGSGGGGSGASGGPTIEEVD

Regarding “MAMVSEFLKQAWFIENEEQEYVQTVKSSKGGPGSAVSPYPTFNPSSDVAALHKAIMVKGVDEATIIDILTKRNNAQRQQIKAAYLQETGKPLDETLKKALTGHLEEVVLALLKTPAQFDADELRAAMKGLGTDEDTLIEILASRTNKEIRDINRVYREELKRDLAKDITSDTSGDFRNALLSLAKGDRSEDFGVNEDLADSDARALYEAGERRKGTDVNVFNTILTTRSYPQLRRVFQKYTKYSKHDMNKVLDLELKGDIEKCLTAIVKCATSKPAFFAEKLHQAMKGVGTRHKALIRIMVSRSEIDMNDIKAFYQKMYGISLCQAILDETKGDYEKILVALCGGN [ANXA1]”, the “solubility in G1/S (log2)” value in the data set with HeLa Kyoto [1] is 0.618. The melting temperature in the data set on HeLa Kyoto [2] (cell cycle stage: G1/S) is 49.1 °C; in the data set with HeLa Kyoto [2] (cell cycle stage: mitosis), 49.6 °C. Further, the “solubility change mitosis (log2)” value with HeLa Kyoto [3] is 0.0587. The thermal stability score in the data set with HeLa Kyoto [4] (setting [5]) was found to be 3.41; in the data set with HeLa Kyoto [4] (cell cycle stage: mitosis), 3.05.
HSPA2: the “solubility in G1/S (log2)” value with HeLa Kyoto [1] worked out at 0.111. The melting temperature in the data set on HeLa Kyoto [2] (cell cycle stage: G1/S) came out at 53.2 °C; in the data set with HeLa Kyoto [2] (cell cycle stage: mitosis), 52.4 °C. Further, the “solubility change mitosis (log2)” value in the data set with HeLa Kyoto [3] was -0.0491. Further, the thermal stability score in the data set on HeLa Kyoto [4] (setting [5]) is 0.118; with HeLa Kyoto [4] (cell cycle stage: mitosis), 1.01.
For the substance “MIKLFSLKQQKKEEESAGGTKGSSKKASAAQLRIQKDINELNLPKTCDISFSDPDDLLNFKLVICPDEGFYKSGKFVFSFKVGQGYPHDPPKVKCETMVYHPNIDLEGNVCLNILREDWKPVLTINSIIYGLQYLFLEPNPEDPLNKEAAEVLQNNRRLFEQNVQRSMRGGYIGSTYFERCLK [UBE2M]”, the “solubility in G1/S (log2)” value in the data set with HeLa Kyoto [1] is 0.576. Moreover, the melting temperature worked out at 51.1 °C in the data set on HeLa Kyoto [2] (cell cycle stage: G1/S) and 51.2 °C in the data set on HeLa Kyoto [2] (cell cycle stage: mitosis). Also, in the data set on HeLa Kyoto [3], the “solubility change mitosis (log2)” value was -0.0392. Further, the thermal stability score in the data set with HeLa Kyoto [4] (setting [5]) is -1.49; with HeLa Kyoto [4] (cell cycle stage: mitosis), -1.29.
For “MVEKEEAGGGISEEEAAQYDRQIRLWGLEAQKRLRASRVLLVGLKGLGAEIAKNLILAGVKGLTMLDHEQVTPEDPGAQFLIRTGSVGRNRAEASLERAQNLNPMVDVKVDTEDIEKKPESFFTQFDAVCLTCCSRDVIVKVDQICHKNSIKFFTGDVFGYHGYTFANLGEHEFVEEKTKVAKVSQGVEDGPDTKRAKLDSSETTMVKKKVVFCPVKEALEVDWSSEKAKAALKRTTSDYFLLQVLLKFRTDKGRDPSSDTYEEDSELLLQIRNDVLDSLGISPDLLPEDFVRYCFSEMAPVCAVVGGILAQEIVKALSQRDPPHNNFFFFDGMKGNGIVECLGPK [SAE1]”, the “solubility in G1/S (log2)” value in the data set on HeLa Kyoto [1] was determined as 0.0883. The melting temperature in the data set on HeLa Kyoto [2] (cell cycle stage: G1/S) was 52.4 °C; with HeLa Kyoto [2] (cell cycle stage: mitosis), 52.3 °C. In addition, the “solubility change mitosis (log2)” value in the data set with HeLa Kyoto [3] was -0.153. For the same substance, the thermal stability score amounted to 0.0359 with HeLa Kyoto [4] (setting [5]) and 0.096 in the data set with HeLa Kyoto [4] (cell cycle stage: mitosis).
LDLR: in the data set on HeLa Kyoto [1], the “solubility in G1/S (log2)” value was -0.34. Further, the melting temperature with HeLa Kyoto [2] (cell cycle stage: G1/S) and with HeLa Kyoto [2] (cell cycle stage: mitosis) was 56.6 °C throughout. Moreover, the “solubility change mitosis (log2)” value in the data set with HeLa Kyoto [3] is -0.00467. Further, the thermal stability score is -1.81 in the data set on HeLa Kyoto [4] (setting [5]) and -1.47 with HeLa Kyoto [4] (cell cycle stage: mitosis).
Turning to DNAJC21, the “solubility in G1/S (log2)” value in the data set with HeLa Kyoto [1] was -0.451. Moreover, the melting temperature came to 50.7 °C with HeLa Kyoto [2] (cell cycle stage: G1/S) and 49.9 °C in the data set on HeLa Kyoto [2] (cell cycle stage: mitosis). For the same substance, in the data set on HeLa Kyoto [3], the “solubility change mitosis (log2)” value came to 0.168. Besides, the figures for the thermal stability score with HeLa Kyoto [4] (setting [5]) and in the data set on HeLa Kyoto [4] (cell cycle stage: mitosis) were 2.06 and 1.36, respectively.
Consider “MADEALAGLDEGALRKLLEVTADLAERRRIRSAIRELQRQELEREEEALASKRFRAERQDNKENWLHSQQREAEQRAALARLAGQLESMNDVEELTALLRSAGEYEERKLIRAAIRRVRAQEIEAATLAGRLYSGRPNSGSREDSKGLAAHRLEQCEVPEREEQEQQAEVSKPTPTPEGTSQDVTTVTLLLRAPPGSTSSSPASPSSSPTPASPEPPLEPAEAQCLTAEVPGSPEPPPSPPKTTSPEPQESPTLPSTEGQVVNKLLSGPKETPAAQSPTRGPSDTKRADVAGPRPCQRSLSVLSPRQPAQNRESTPLASGPSSFQRAGSVRDRVHKFTSDSPMAARLQDGTPQAALSPLTPARLLGPSLTSTTPASSSSGSSSRGPSDTSSRFSKEQRGVAQPLAQLRSCPQEEGPRGRGLAARPLENRAGGPVARSEEPGAPLPVAVGTAEPGGSMKTTFTIEIKDGRGQASTGRVLLPTGNQRAELTLGLRAPPTLLSTSSGGKSTITRVNSPGTLARLGSVTHVTSFSHAPPSSRGGCSIKMEAEPAEPLAAAVEAANGAEQTRVNKAPEGRSPLSAEELMTIEDEGVLDKMLDQSTDFEERKLIRAALRELRQRKRDQRDKERERRLQEARGRPGEGRGNTATETTTRHSQRAADGSAVSTVTKTERLVHSNDGTRTARTTTVESSFVRRSENGSGSTMMQTKTFSSSSSSKKMGSIFDREDQASPRAGSLAALEKRQAEKKKELMKAQSLPKTSASQARKAMIEKLEKEGAAGSPGGPRAAVQRSTSFGVPNANSIKQMLLDWCRAKTRGYEHVDIQNFSSSWSDGMAFCALVHNFFPEAFDYGQLSPQNRRQNFEVAFSSAEMLVDCVPLVEVDDMMIMGKKPDPKCVFTYVQSLYNHLRRHELRLRGKNV [SMTN]”, for which, in the data set with HeLa Kyoto [1], the “solubility in G1/S (log2)” value was -0.058. For the same substance, the melting temperature turned out to be 48.9 °C in the data set on HeLa Kyoto [2] (cell cycle stage: G1/S) and 50 °C in the data set with HeLa Kyoto [2] (cell cycle stage: mitosis). Moreover, the “solubility change mitosis (log2)” value with HeLa Kyoto [3] is 0.208. The thermal stability score with HeLa Kyoto [4] (setting [5]) was determined as 0.326; in the data set with HeLa Kyoto [4] (cell cycle stage: mitosis), 0.869.
